Laboratory results published in US20180185504A1 (Regeneron, published 2018).

T1: mouse PRLR construct with an HA tag on HEK293/mPRLR cells (mouse, UniProt Q08501 20-608)
T1 construct: whole, on cells; stably transfected into HEK293
T1 sequence (looked up): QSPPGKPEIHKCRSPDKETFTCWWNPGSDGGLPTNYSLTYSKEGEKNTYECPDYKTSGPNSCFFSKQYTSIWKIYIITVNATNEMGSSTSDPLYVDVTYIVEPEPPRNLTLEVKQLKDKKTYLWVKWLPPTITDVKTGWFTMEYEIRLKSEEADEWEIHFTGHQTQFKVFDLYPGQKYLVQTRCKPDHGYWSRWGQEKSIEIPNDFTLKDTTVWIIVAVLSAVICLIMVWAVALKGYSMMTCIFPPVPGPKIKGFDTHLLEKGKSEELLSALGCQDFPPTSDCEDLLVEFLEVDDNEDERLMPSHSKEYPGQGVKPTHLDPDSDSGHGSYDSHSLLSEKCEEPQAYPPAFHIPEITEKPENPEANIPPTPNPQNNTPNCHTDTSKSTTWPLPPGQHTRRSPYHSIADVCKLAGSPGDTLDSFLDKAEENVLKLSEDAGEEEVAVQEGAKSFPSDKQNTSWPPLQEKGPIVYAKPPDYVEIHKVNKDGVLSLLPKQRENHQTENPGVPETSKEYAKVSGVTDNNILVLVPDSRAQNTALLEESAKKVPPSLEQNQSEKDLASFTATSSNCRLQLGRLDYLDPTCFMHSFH

T2: hPRLR.mmh (soluble monomeric human PRLR) (human)
T2 construct: soluble monomeric PRLR protein
T2 chain: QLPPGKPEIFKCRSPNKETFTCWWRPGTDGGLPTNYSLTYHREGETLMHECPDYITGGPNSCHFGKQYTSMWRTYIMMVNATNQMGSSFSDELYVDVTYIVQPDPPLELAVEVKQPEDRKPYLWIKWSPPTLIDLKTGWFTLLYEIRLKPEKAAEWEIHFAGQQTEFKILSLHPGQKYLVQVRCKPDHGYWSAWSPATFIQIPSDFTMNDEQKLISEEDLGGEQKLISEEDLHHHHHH

T3: human PRLR on cells (endogenous on T47D, T47D#11, MCF7); introduced in HEK293/hPRLR/STAT5-Luc, 293/hPRLR, … (human, UniProt P16471 25-622)
T3 sequence: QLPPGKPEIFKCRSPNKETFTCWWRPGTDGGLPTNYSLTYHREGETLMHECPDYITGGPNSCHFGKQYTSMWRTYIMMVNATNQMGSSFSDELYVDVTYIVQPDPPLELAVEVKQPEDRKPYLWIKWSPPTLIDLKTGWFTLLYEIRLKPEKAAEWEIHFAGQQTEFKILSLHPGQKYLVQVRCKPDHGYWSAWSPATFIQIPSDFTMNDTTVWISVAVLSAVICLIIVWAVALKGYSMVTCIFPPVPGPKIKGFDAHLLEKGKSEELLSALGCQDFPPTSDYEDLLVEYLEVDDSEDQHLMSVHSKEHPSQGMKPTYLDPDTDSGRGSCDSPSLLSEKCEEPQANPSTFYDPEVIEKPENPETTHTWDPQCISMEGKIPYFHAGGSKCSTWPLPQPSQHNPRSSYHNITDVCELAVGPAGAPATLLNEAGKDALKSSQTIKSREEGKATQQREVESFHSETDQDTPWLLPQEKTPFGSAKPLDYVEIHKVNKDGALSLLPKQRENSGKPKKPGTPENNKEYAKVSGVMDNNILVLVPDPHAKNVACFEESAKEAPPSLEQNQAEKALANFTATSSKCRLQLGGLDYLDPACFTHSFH

T4: monkey macaca fascicularis PRLR construct with an HA tag on HEK293/mfPRLR cells (macaca fascicularis, UniProt A0A2K5WXK1 25-619)
T4 construct: stably transfected into HEK293
T4 sequence: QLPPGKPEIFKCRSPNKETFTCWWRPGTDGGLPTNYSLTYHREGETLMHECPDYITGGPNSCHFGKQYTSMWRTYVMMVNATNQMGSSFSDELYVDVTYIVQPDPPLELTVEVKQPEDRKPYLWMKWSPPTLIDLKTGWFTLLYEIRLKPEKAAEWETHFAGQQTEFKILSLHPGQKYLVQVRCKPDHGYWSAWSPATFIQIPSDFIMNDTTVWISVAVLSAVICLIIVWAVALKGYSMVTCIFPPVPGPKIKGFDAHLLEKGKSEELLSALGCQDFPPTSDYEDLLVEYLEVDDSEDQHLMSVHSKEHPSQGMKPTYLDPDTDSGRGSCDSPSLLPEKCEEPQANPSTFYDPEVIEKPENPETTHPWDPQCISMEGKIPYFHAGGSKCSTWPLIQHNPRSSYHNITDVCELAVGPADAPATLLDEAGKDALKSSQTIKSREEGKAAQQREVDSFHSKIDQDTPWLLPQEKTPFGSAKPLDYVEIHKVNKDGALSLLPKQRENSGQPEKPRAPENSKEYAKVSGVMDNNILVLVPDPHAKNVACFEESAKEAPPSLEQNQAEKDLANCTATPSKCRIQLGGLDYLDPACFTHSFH

B1: H1H6800P (antibody, human IgG1, V domains shown)
VH: EVQLVESGGGLVQPGRSLRLSCAASGFTFDGYAMHWVRQGPGKGLEWVSGISWYSDTLGYADSVKGRFTISRDNAKNSLYLQMNSLRTEDTAFYYCAKISSSGWAFDYWGQGTLVTVSS
VL: EIVLTQSPGTLSLSPGERATLSCRASHSVSSAYLAWYQQKPGQTPRLLIYGTSSRATGIPDRFSGSGSGTDFTLTISRLEPEDFAVYYCQQYGSSPLFTFGPGTKVDIK
notes: human IgG1 Fc (H1H)
B2: H1H6765P (antibody, human IgG1, V domains shown)
VH: EVQLVESGGGVVRPGGSLRLSCVGSGFSFDDHGMNWVRQGPGKGLEWVSGFNWNGGSTNYAESVKGRFTISRDNARNSLFLQMNSLRAEDTALYYCVRGRSGWFNDAFDVWGPGTMVTVSS
VL: EIVLTQSPGTLSLSPGERATLSCRASQTINSNYLAWYRQKPGQTPRLLIYGTSSRATGIPDRFSGSGSGTDFSLTISRLEPEDFAVFYCQQYAGLPTFGPGTKVDIK
notes: human IgG1 Fc (H1H)
B3: H1H6975N (antibody, human IgG1, V domains shown)
VH: EVHLVESGGGLVQPGGSLRLSCAASGFTFSSYEMNWVRQTPGKGLEWISHISSRSVIIYYADSVKGRFTISRDNAKNSLFLQMNSLRAEDTAVYFCAGITIFGIPEYWGQGTLVTVSS
VL: EIVLTQSPATLSLSPGERATLSCRASQSVSSYFAWYQQKPGQAPRLLIYDASSRATGIPTRFSGSGSGTDFTLTISSLEPEDFAVYYCQQRSSWPITFGQGTRLEIK
notes: also called H2M6975N
B4: H1H6803P (antibody, human IgG1, V domains shown)
VH: EVQLVESGGGVVRPGGSLRLSCAASGFKFDDYGMTWVRHVPGKGLEWVSGINWNGGRTGYTDSVKGRFTISRDNAKNSLYLQMNSLRAEDTALYHCAGARRDAFDIWGQGTMVTVSS
VL: DIQMTQSPSSLSASIGDRVTITCRASQNIIKYLNWYQQNAGKAPKLLIYTASSLQSGVPSRFSGSGSGTDFTLTISSLQPEDFATYYCQQSSSSPYTFGQGTKLEIK
notes: human IgG1 Fc (H1H)
B5: H1H6762P (antibody, human IgG1, V domains shown)
VH: QVQLVESGGGVVQPGRSLRLSCAASGFTFSHYGMVWVRQPPGKGLEWVALISFDGTTKYYADSVKGRFTISRDNSKNTLYLQMNSLRAEDTAVYFCVGAIAAAAFDLWGRGTLVTVSS
VL: EIVMTQSPATLSVSPGERATLSCRASQSVSSDLAWYQQKPGQAPRLLIYSASARATGIPARFTGSGSGTDFTLTISSLQSEDFAVYYCQQYNNWPMYTFGQGTKLEIK
notes: human IgG1 Fc (H1H)

How the values were obtained:
[1] = target: T1, mouse PRLR construct with an HA tag on …; assay: FACS on HEK293/mPRLR cells
[2] = target: T2, hPRLR.mmh (soluble monomeric human PRLR); assay: SPR (Biacore), antibody capture, 37 C
Method: Measurements were conducted on a T200 Biacore instrument. Kinetic association (kₐ) and dissociation (kd) rate constants were determined by processing and fitting the data to a 1:1 binding model using Scrubber 2.0 curve fitting software.

[3] = target: T3, human PRLR on cells (endogenous on …); assay: cell-based or functional assay
[4] = target: T3, human PRLR on cells (endogenous on …); assay: FACS on T47D cells
[5] = target: T4, monkey macaca fascicularis PRLR …; assay: FACS on HEK293/mfPRLR cells
[6] = target: T3, human PRLR on cells (endogenous on …); assay: cell-based or functional assay; remark: listed apart in the source

Binder	FACS Cell Binding (Fold Above Background) [1]	Kd [2]	T 1/2 [2]	koff [2]	kon [2]	IC50 of Blocking 5 nM PRL [M] (STAT5-Luc reporter, HEK293/hPRLR/STAT5-Luc cells) [3]	Percent Blocking at 100 nM Antibody (STAT5-Luc reporter) [3]	FACS Cell Binding (Fold Above Background) [4]	FACS Cell Binding (Fold Above Background) [5]	% Internalization relative to Control I (T47D cells, imaging) [6]
B1	1 fold	1.47 nM	10 min	0.00119 s⁻¹	808000 M⁻¹ s⁻¹	3.55e-10 M	100%	41 fold	29 fold	198%
B2	1 fold	0.292 nM	32 min	0.000366 s⁻¹	1.25e+06 M⁻¹ s⁻¹	3.3e-11 M	100%	40 fold	27 fold	186%
B3	1 fold	1.29 nM	42.3 min	0.000273 s⁻¹	211000 M⁻¹ s⁻¹	2.41e-10 M	100%	46 fold	29 fold	214%
B4	1 fold	2.83 nM	32 min	0.000364 s⁻¹	129000 M⁻¹ s⁻¹	6.27e-10 M	100%	39 fold	28 fold	190%
B5	2 fold	0.48 nM	25 min	0.000455 s⁻¹	948000 M⁻¹ s⁻¹	2.19e-11 M	100%	38 fold	26 fold	186%
